The values below come from patent US20150132821, “Systems and Methods for Improving Nuclease Specificity and Activity” (Georgia Tech Research Corporation, published 2015).

Data set [1] addresses T1, S-07 (S7) NK-TALEN (synthetic, UniProt B2SU53 SEQ:41-1041).
T1 chain: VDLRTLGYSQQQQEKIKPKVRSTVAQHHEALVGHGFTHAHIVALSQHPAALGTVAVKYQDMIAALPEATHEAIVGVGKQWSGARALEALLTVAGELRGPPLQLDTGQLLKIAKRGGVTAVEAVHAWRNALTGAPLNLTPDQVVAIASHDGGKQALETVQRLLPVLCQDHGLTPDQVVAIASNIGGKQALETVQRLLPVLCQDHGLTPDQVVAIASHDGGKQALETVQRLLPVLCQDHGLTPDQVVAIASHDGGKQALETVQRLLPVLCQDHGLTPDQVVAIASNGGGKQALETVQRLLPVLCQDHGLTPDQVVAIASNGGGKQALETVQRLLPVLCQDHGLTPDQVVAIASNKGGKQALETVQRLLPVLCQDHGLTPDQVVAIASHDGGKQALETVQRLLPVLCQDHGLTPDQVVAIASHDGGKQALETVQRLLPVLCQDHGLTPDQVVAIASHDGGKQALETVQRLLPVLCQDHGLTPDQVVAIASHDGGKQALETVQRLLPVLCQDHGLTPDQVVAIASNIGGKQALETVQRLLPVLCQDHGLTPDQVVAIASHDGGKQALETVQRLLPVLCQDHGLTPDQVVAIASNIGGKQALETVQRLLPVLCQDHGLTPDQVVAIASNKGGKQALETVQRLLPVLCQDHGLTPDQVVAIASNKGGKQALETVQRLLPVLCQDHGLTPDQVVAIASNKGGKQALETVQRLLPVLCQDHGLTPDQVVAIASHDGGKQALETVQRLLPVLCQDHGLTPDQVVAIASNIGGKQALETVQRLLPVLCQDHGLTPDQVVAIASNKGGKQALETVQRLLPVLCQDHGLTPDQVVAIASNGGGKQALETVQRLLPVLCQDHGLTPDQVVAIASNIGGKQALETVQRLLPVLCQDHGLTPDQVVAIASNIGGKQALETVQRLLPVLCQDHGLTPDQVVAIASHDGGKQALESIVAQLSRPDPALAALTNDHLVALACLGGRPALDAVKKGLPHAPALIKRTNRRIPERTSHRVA
The experiment in a line: cell_activity; monomer SSA assay. As to conditions: tags: 3xFLAG, NLS, FokI. As to the method: (§1) HEK293T cells (ATCC) were cultured in Dulbecco's Modified Eagle Medium (Sigma) supplemented with 10% FBS and 2 mM L-Glutamine. Cells were seeded 80,000 per well of a 24-well plate. After 4 h, cells were transfected with 200 ng of the TALEN plasmid (or 100 ng of each TALEN for hetero-dimeric pairs) and 10 ng of the corresponding SSA reporter plasmid using calcium phosphate transfection. Three control transfections were included: 1) 200 ng of an empty TALEN backbone and 10 ng of an SSA reporter plasmid, 2) 200 ng of an empty TALEN backbone and 10 ng of a pEGFP plasmid, and 3) 100 ng of each GFP-ZFN and 10 ng of an SSA reporter plasmid. Cells were harvested 48 h after transfection. The percentages of pEGFP-transfected samples expressing GFP were determined using an Accuri C6 flow cytometer, as an indication of transfection efficiency. Genomic DNA was isolated using QuickExtract DNA extraction solution (Epicentre) as described20. Sample were PCR amplified for 35 cycles (95° C., 30 s; 60° C., 30 s; 72° C., 60 s) in a 50 μl reaction that contains 2 μl of the extracted DNA, 2.5 μl of each 10 μM target region amplification primer (SSA-Cell-F4, 5′-[…] (SEQ ID NO: 183); SSA-Cell-R4, 5′-[…] (SEQ ID NO: 184)), and 25 μl of GoTaq green master mix (Promega). PCR reactions were then separated on 2% agarose gels and the percentages of SSA-repaired products were quantified using ImageJ.

In data set [2] the target is T2, S-02 (S2) NK-TALEN (synthetic, UniProt Q56830 SEQ:41-735).
T2 chain: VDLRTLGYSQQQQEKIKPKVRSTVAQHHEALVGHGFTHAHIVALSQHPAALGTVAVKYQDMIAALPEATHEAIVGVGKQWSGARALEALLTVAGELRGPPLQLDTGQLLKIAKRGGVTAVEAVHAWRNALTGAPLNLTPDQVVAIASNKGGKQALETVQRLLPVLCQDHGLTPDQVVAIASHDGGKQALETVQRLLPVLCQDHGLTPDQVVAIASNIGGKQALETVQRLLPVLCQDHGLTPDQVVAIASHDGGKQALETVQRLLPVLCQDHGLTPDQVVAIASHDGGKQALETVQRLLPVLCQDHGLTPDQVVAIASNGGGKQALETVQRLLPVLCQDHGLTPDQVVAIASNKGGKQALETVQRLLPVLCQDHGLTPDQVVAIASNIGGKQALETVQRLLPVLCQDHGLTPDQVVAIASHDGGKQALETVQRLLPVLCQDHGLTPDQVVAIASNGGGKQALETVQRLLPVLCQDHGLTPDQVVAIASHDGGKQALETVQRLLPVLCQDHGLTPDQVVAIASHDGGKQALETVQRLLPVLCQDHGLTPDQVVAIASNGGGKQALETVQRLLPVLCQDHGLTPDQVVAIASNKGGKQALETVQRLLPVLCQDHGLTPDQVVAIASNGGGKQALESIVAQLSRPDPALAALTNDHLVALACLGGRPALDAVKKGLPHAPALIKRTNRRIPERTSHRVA
The experiment in a line: cell_activity; monomer SSA assay. The conditions noted are these: tags: 3xFLAG, NLS, FokI. On the procedure: as §1

B1: S-07 half-site (dsDNA)
DNA 1: CACCTTGCCCCACAGGGCAGTAAC
DNA 2: GTTACTGCCCTGTGGGGCAAGGTG
B1: in data set [1], the activity was 7.5 % SSA.

B2: S-02 half-site (dsDNA)
DNA 1: GCACCTGACTCCTGT
DNA 2: ACAGGAGTCAGGTGC
B2 returned an activity in data set [2] of 23 % SSA.
